Four molecules from patent US20090087417A1, “METHODS FOR PROMOTING DOPAMINERGIC NEURONAL DEVELOPMENT BY USING NG4A-SUBFAMILY AND WNT-LIGANDS” (priority 2002, published 2009) can be followed below.

Experiment [1] deals with E14.5 ventral mesencephalic precursor cultures. The experiment is described as follows: Number of TH+ neurons in E14.5 ventral mesencephalic precursor cultures. In kind it is cell-based, rat. The conditions noted are these: for effects on TH+ cell numbers, time course: 10 units, 1, 3 and 7 days in vitro; for increases in TH+ cell numbers compared with GDNF, FGF-2 or FGF-8 / increases in TH+ cell numbers compared with VM T1A conditioned medium: after 3 days; for TH+ cell numbers: increasing concentrations of partially purified Wnt, 3 days; for increase in TH+ neurons: partially purified Wnts, compared to controls (FIG. 10A). The method, then: (§1) Ventral mesencephala and cerebral cortices from embryos E13.5-14.5 obtained from timed-mated Sprague-Dawley rats were dissected, mechanically dissociated and plated at a final density of 1×10^5 cells/cm2 on poly-D-lysine coated 12- or 24-well plates in a defined, serum-free medium (N2, consisting of a 1:1 mixture of F12 and DMEM containing insulin (10 ng/ml), transferrin (100 μg/ml), putrescine (100 μM), progesterone (20 nM), selenium (30 nM), glucose (6 mg/ml), and bovine serum albumin (1 mg/ml)). Purified Type 1 astrocytes were obtained from mixed glial cultures derived from the VM or CTX of P1 rats according to a standard protocol (Wagner et al., 1999). After shaking and replating into 12-well plates, astrocytes were grown to confluency in 15% fetal bovine serum-containing media and changed to N2 medium, at which time freshly dissected VM or CTX cells were plated on top of the astrocytes at a density of 1×10^5 cells/cm2. All factors were added once, at the initiation of culture, with the exception of 5-bromodeoxyuridine (BrdU), which was added 4-6 hours prior to fixation. Cultures were maintained in a humidified 5% CO2, 95% air incubator at 37° C. and fixed after given time periods with 4% paraformaldehyde for 45 minutes prior to immunocytochemical analysis.
B1A fibroblast lines stably overexpressing hemagglutanin-tagged Wnt-1a, 3a, or 5a (Shimizu H., 1997) were grown in standard complete media (DMEM+10% FBS) supplemented with 100 ug/ml G-418. For collection of conditioned media, cells were replated at low density in complete media and allowed to reach 50-75% confluency, at which point cells were washed and media was replaced with serum-free N2 (with 10 μM sodium butyrate) for 24 hours. Conditioned media from sister flasks was then harvested, pooled as lots and stored at −80° C. for up to 2 months. When compared to fresh CM, no loss of activity was observed when using this collection and storage routine. T1A CM was harvested using a similar procedure, with the exception that media was collected after 3 days in vitro.
For concentration, individual lots of CM were thawed at room temperature, divided into 80 ml aliquots, loaded onto Centricon-Plus 80 columns (Millipore) and concentrated via centrifugation according to the manufacturers instructions. Following concentration, aliquots were re-pooled and frozen at −80 C after a sample was taken for determination of protein content and Western blot analysis. In brief, 20 ug of protein was loaded onto a 10% polyacrylamide mini-gel and run under denaturing conditions at 150 V for approximately 30 minutes. After dry electroblot transfer onto PVDF membranes (Hybond P, Amersham Pharmacia Biotech, Upsalla, Sweden) and pre-incubation for 30 minutes in a blocking buffer consisting of 3% bovine serum albumin in Tris-Buffered Saline with […] Triton-X 100 (TBST), blots were incubated with mouse anti-hemagglutinin (Babco) diluted 1:1000 in TBST overnight at 4 C. After washing, blots were incubated with alkaline phosphatase-coupled goat anti-mouse IgG (Santa Cruz) diluted 1:1000 in TBST for 1 hour at room temperature. Blots were visualized using the Amersham ECF reagent and blue fluorescence quantitated using a Molecular Devices Storm 840 phosphoimager.
B1A fibroblast lines were cotransfected with the mFz8CRD-IgG/pRK5 and the pIRES puro 2 (Clontech, BD Bioscience, Erembodegem, Belgium) plasmids, using Lipofectamine Plus reagent (Invitrogen, Lidingo, Sweden) according to the instruction of the manufacturer. Upon selection for puromycin resistance (1 μg/ml Sigma, Stockholm, Sweden), clones were isolated and expanded. A clone overexpressing Fz8CRD 700× (real time RT-PCR analysis) was identified. Harvesting and partial purification of Fz8CRD conditioned media were performed as described previously. In all the blocking experiments performed, the Fz8CRD and B1A control partial purified conditioned medias were used at a final concentration of 125-250 μg/ml. […]

The test system of experiment [2] is VM precursor cultures / Nurr1+ precursor cells. As to the kind of experiment: BrdU incorporation (proliferation) in VM precursor cultures. In kind it is cell-based, rat. The conditions noted are these: for increase in Nurr1 and BrdU double positive precursor cells (mitosis in Nurr1+ population): 1 day in vitro; for BrdU incorporation in VM precursor cultures: 3 days in vitro. Here is the method:
as §1
Fixed cultures were incubated with one of the following antibodies, diluted appropriately in phosphate-buffered saline (PBS) containing 1% bovine serum albumin and 0.3% Triton-X 100: mouse anti-BrdU, 1:50 (DAKO, Denmark), mouse anti-β-tubulin, Type III (TuJ1), 1:250 (Sigma), mouse anti-TH, 1:1000 (Incstar, USA), rabbit anti-TH, 1:250 (PelFreeze); rabbit anti-Nurr1, 1:2000 (gift from Dr. T. Perlmann, Sweden), rabbit anti-Nurr1, 1:1000 (Santa Cruz, USA) or mouse anti-Nurr1, 1:250 (BD Transduction Laboratories, USA), rabbit anti Adh2 1:4000 (gift from Dr. R. Lindahl, South Carolina). Incubations were either carried out at 4° C. overnight, or at room temperature for 1 hour. Both processes yielded similar results. After washing, cultures were incubated for 1-3 hr with appropriate secondary antibodies (biotinylated 1:500; CY2-, FITC-, or rhodamine-coupled horse-anti-mouse IgG 1:100; or goat-anti-rabbit IgG 1:100; all from Vector, USA), in the same dilution buffer. Brightfield immunostaining was visualized with the Vector Laboratory ABC immunoperoxidase kit, using either NovaRed (red), or AEC (red), SG or 3-3′ dimaminobenzidine tetrahydrochloride (DAB 0.5 mg/ml)/nickel chloride (1.6 mg/ml) (gray/black), or VIP (violet) substrates. Double-staining was performed by sequential single staining as described. The order of staining was only critical for BrdU-double labeling, in which case the BrdU procedure was always performed second. […] Photos were acquired with a Zeiss Axioplan 100M microscope and collected with a Hamamatsu camera C4742-95 (with the QED imaging software).
Only clearly stained cells were counted as positive cells. Spheres were considered positive if they contained one or more positive cell. Quantitative immunocytochemical data on individual cells represent means and standard errors of counts obtained by a blinded observer from 10-20 non-overlapping fields (cells) or in the entire well (clusters), in each of 3-4 wells per condition from 3-4 independent experiments, unless stated otherwise. For each variable, initial statistical comparisons were performed by a global ANOVA, with multiple factors of dose, time point, treatment and/or region; if significant interactions between treatment and any other variable existed, data were further divided into separate times, doses or regions. Fisher's protected least significant difference was used post hoc to identify specific points at which the treatments differed from controls (or each other) only when significant interactions between factor treatment and other variables occurred. Significance for all tests was assumed at the level of p<0.05. […]

B1: Wnt-1: Partially purified conditioned media from stable fibroblast cell line engineered to secrete Wnt-1 ligand (protein)
chain: ANSSGRWWGIVNIASSTNLLTDSKSLQLVLEPSLQLLSRKQRRLIRQNPGILHSVSGGLQSAVRECKWQFRNRRWNCPTAPGPHLFGKIVNRGCRETAFIFAITSAGVTHSVARSCSEGSIESCTCDYRRRGPGGPDWHWGGCSDNIDFGRLFGREFVDSGEKGRDLRFLMNLHNNEAGRTTVFSEMRQECKCHGMSGSCTVRTCWMRLPTLRAVGDVLRDRFDGASRVLYGNRGSNRASRAELLRLEPEDPAHKPPSPHDLVYFEKSPNFCTYSGRLGTAGTAGRACNSSSPALDGCELLCCGRGHRTRTQRVTERCNCTFHWCCHVSCRNCTHTRVLHECL
modifications: left off: small tags and cut ends
With B1, in experiment [1], the “effects on TH+ cell numbers, time course” value is recorded as “detected as early as after 1 day in vitro”; the “increases in TH+ cell numbers compared with GDNF, FGF-2 or FGF-8” value was “exceeded increases produced by known dopaminotrophic molecules”; the “increases in TH+ cell numbers compared with VM T1A conditioned medium” value is on record as “roughly equaled”; the “TH+ cell numbers” value was “robust dose-response increases”. In experiment [2], the “increase in Nurr1 and BrdU double positive precursor cells (mitosis in Nurr1+ population)” value came to 3 fold; the “BrdU incorporation in VM precursor cultures” value (“BrdU incorporation” below) was “increased”.

B2: Wnt-2: Partially purified / conditioned media from Wnt-2 overexpressing fibroblast cell line (protein, UniProt P21552 26-360, looked up)
Protein Wnt-2: SWWYMRATGGSSRVMCDNVPGLVSRQRQLCHRHPDVMRAIGLGVAEWTAECQHQFRQHRWNCNTLDRDHSLFGRVLLRSSRESAFVYAISSAGVVFAITRACSQGELKSCSCDPKKKGSAKDSKGTFDWGGCSDNIDYGIKFARAFVDAKERKGKDARALMNLHNNRAGRKAVKRFLKQECKCHGVSGSCTLRTCWLAMADFRKTGDYLWRKYNGAIQVVMNQDGTGFTVANKRFKKPTKNDLVYFENSPDYCIRDREAGSLGTAGRVCNLTSRGMDSCEVMCCGRGYDTSHVTRMTKCECKFHWCCAVRCQDCLEALDVHTCKAPKSADWATPT
modifications: conditioned medium
notes: Partially purified / conditioned media from Wnt-2 overexpressing fibroblast cell line
B2: the “increase in TH+ neurons” value in experiment [1] was approximately 2 fold. Moreover, the “BrdU incorporation” value in experiment [2] is reported as “slight decrease”.

B3: Wnt-5a: Partially purified conditioned media from stable fibroblast cell line engineered to secrete Wnt-5a ligand (protein)
chain: IIGAQPLCSQLAGLSQGQKKLCHLYQDHMQYIGEGAKTGIKECQYQFRHRRWNCSTVDNTSVFGRVMQIGSRETAFTYAVSAAGVVNAMSRACREGELSTCGCSRAARPKDLPRDWLWGGCGDNIDYGYRFAKEFVDARERERIHAKGSYESARILMNLHNNEAGRRTVYNLADVACKCHGVSGSCSLKTCWLQLADFRKVGDALKEKYDSAAAMRLNSRGKLVQVNSRFNSPTTQDLVYIDPSPDYCVRNESTGSLGTQGRLCNKTSEGMDGCELMCCGRGYDQFKTVQTERCHCKFHWCCYVKCKKCTEIVDQFVCK
modifications: left off: small tags and cut ends
Regarding B3, in experiment [1], the “effects on TH+ cell numbers, time course” value is reported as “detected as early as after 1 day in vitro”; the “increases in TH+ cell numbers compared with GDNF, FGF-2 or FGF-8” value is recorded as “exceeded increases produced by known dopaminotrophic molecules”; the “increases in TH+ cell numbers compared with VM T1A conditioned medium” value was “roughly equaled”; the “TH+ cell numbers” value was “robust dose-response increases”. Also, in experiment [2], the “increase in Nurr1 and BrdU double positive precursor cells (mitosis in Nurr1+ population)” value was “two”; the “BrdU incorporation” value is given as “not”.

B4: Wnt-7a: Partially purified / conditioned media from Wnt-7a overexpressing fibroblast cell line (protein, UniProt P24383 32-349, looked up)
Protein Wnt-7a: LGASIICNKIPGLAPRQRAICQSRPDAIIVIGEGSQMGLDECQFQFRNGRWNCSALGERTVFGKELKVGSREAAFTYAIIAAGVAHAITAACTQGNLSDCGCDKEKQGQYHRDEGWKWGGCSADIRYGIGFAKVFVDAREIKQNARTLMNLHNNEAGRKILEENMKLECKCHGVSGSCTTKTCWTTLPQFRELGYVLKDKYNEAVHVEPVRASRNKRPTFLKIKKPLSYRKPMDTDLVYIEKSPNYCEEDPVTGSVGTQGRACNKTAPQASGCDLMCCGRGYNTHQYARVWQCNCKFHWCCYVKCNTCSERTEMYTCK
modifications: conditioned medium
notes: Partially purified / conditioned media from Wnt-7a overexpressing fibroblast cell line
As for B4, in experiment [1], the “increase in TH+ neurons” value was “modest TH+ increases”. In experiment [2], the “BrdU incorporation” value was “BrdU+ increases similar to that of Wnt-1”.
